Reference: the NTF2 design screens of Basanta et al. (2020)

Test: protease stability score; higher = more stable; yeast display proteolysis, trypsin and chymotrypsin;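 also: relative to predicted unfolded state with 0 unfolded-like and 1 meaning tenfold more protease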

Sequence	protease stability score
DEREERNKQISELLWHALLTGNWEMLQHLADPHVRVDINGVDLHGRELLVKHLKKFGVDHSRHHDLEIQGEKLIIRGEVEVNGKRIDVEIRIEVIDGKVKHVEVHEN	1.24
DEREERSRHQMEWLWHLMITGDERLLEELADPHAKIEVGDKDFHGRHTLIEIIREHLQRVKNVRLEFREIEIQGDKIIIRGKLHIGDKEKDIIVIIVVVNGRLKSFKLEVH	1.19
DEREEWVERIERRLKEAIRTGDEHTLSKNMDPDAKLDINGVDLIGWERVIDFLRELRKELGVDKIHFRVESRRIIGDKAELDTRLHVNGKHHDTHVIIEKFNGVWSIHSLHVR	1.15
DEREHDLRRAVHIHRELMMTGDESNFLSYADPNTRLEVDGQEVVGREEVFKWITNVLSRHGVELKDIRVKTMDHQGNKLILHVEIRTRIGEKDTSVDFTLVVEKVNGRWVLHSLEIH	0.16
DEREHSVKLAFDKFLEDLHTGNEEMLDRFLDPHVRYHVGDKERHGRENFSRHVAKFLTEYGFKHLHLHMKDWEVQGDKATIEGHVNMHFNGRLIRHNTHLVIWKVNGRWLLESSEER	0.699
DEREKDVEHWFQRLIEAQITGDEEEFDELADPNVLIEINGRELHGRDDFHKYLKRVDHFEIQHFRHHHRHIFDGKVYFNGHSELHVTVGDKRFRYEDEIHHISLKIDGRWILKSVHFA	0.635
DEREKEAKTLHQEWFRALQTGNEKRLHELLDPHVRSDVNGVKLHGRHALIKFLVKWLRQIDHNERLEIHDIRFQGDKSEEDVRVVVHIDGRRIDYETHVHLDIYDGVIREVEIDIK	1.18
DEREKEALDIAREVLHNIMTGDWERLSQLLDPNTRFHEHWNGVHIDLHGRETVSHLLFRHVKHIRIEHVHLEDMVVIGEKAIIHSRRHIEIDGKHMTHHVLLYLLVIDGKIKDVRLHLE	0.869
DEREKEHETQIRLLIHAIQTGDESMFHKMMDPNVRIQVGDKHIHGREFFVEIFKKLIDRYPGIQLHIRIHSIRFQGEKVTIDERLEIIVGDKEMRFETEIFSQKVNGRWLIEFERIQ	0.579
DEREKELERIARELLKALYTGDEDILDKLVDPNVRLELDIDGKTNDIHGMENWFRFYETQWKKLGVDVYDIKDMDVWNGKITINSRVEVNGRYIDTRLILVVIDGRMHEIHIKEK	1.23
DEREKETERMLELFIKVLLTGNEHDLMKLADPHVKLDINGREIHGREHLEEMWRHLWIDDSKRREVRNVGEWSHIYGETDGTFNGKKVRDTVEIRLYIVNGKAHRIYIIER	0.655
DEREKFAEEIMEIFIRDVLTGDFDSLHKLIDPNTKIDLHIGDKIRPLHGREEFVKWVKEMRIHRWDITDMKVIGDKAHIDTTVDGEFNGRRTRFRQIINLDMVNGRLREIQITIG	2.2
DEREKFLEEMVEEWFRNWVTGDEDRFEELADPDVRFHIGDKDSHGREAFEELMKRMGFKYKHIELHDVHIQGDKSHIDGHVQGQVNGQERDSHVHLDLVVVNGRLRTMEVRFR	1.44
DEREKHAKDFFDILLHLLLTGDWDKIIRMADPDVKLEIGDKRFHGMEHISETWLKRFTRLGVDHQHFHLHTVKFINGVATIHGRQHLHVGDKTIDLEVIIYVEKIDGRWILNNIEVR	1.11
DEREKLAKKFLELFLHYIETGDEEVLRKLLDPSTRLEVNGRDNHGWKMFIWLLRELRIHRVHMELKVTDIQGDYVRNEGRLRSDVEYGDKRFETEYMVIIFLEKVDGRWHLHSFEVD	1.56
DEREKREEEVLKIIIEITETGDWRIFMELADPHVKLDIGDKDMHGMEEAERLWELMHKLLGINHIRFRHLRIQGDKVDMEFNVTIGDKQVDTRRHVITVDGRLHEVHEEFK	0.399
DEREKRLKDIALIVMHLLLTGDEERFHELFDPDTKMTLIFNGQIETSHGMEEVRELLRYWLEEIRIEHYHLTEIHLIGDKTHVHGELVGEVNGKRFKTHIHITIVVIDGKVHSVEFELR	1.77
DEREKRWRKLHQDILEAIWTGDEETFLRLADPDMRFYLIVNGRTVDLHGMELASVVLHERRKRFKNATWHLKSERVQGNYSELNEELIVGDKTYDIRINLVHIDGKLHSVVIEDI	1.01
DEREQEAHRAIEKFMHYVRTGNEDKLKEFLDPNALNLFDGRHDVGREDVTESMIEIMRHLGVTLHDVKITDMRTQGDYLTVNGWFNLEYDGVRDNHKVFIHSRKVDGKWIITKIDWR	1.26
DERERDAEDALDELREIWRTGDWELIHQMLDPEVRLDINGVRLVGREHWVDEVRRLFHKVPGMTYHLKDVHFQGNKMHVDILSRYDGRESKVDLILLKINGKWLNKEVRIREE	0.807
DERERDARIYFHLLLHVIMTGNEEDLERFMDPHARIQIGDKMVHGRENVYHELLRIAREMRLHHSHIHEIRVIDGRVILKGHLDLEVGDKRELVDVEWIVIKVNGKWIFHSVHFR	2.53
DERERDARKAVKDFIESIRTGDEDEIEKLLDPHVRVDAPNHERHGREEVVEELREMRIEIRDVRFRHIHVQGNKIEVHVRVHGSLMINGREYRIDTTMIIIMEKIDGRWILTHIEEK	1.62
DERERDIREWMRIYIEMWETGDEDKLLTMIDPHYREETENEDIHGREQAHKKIKDIKERADHLHIRVHDVDIIDGVAVLDVEILIIIGDKVIRVRTTIIMRKINGKWFIERVHIK	0.235
DERERELKQALDLFKDIIKTGDEEALTRLIDPNAKMRVNGQDIHGWHHFILMMIRIYLHMGIKHIIDHRLHIQGDYLHLDTEVHVDGRSIRYHIVLFKFDGRWHLESSSSI	1.6
DERERIAEEILRRIAKLMETGDENEMEHLMDPNVRLVFNGVRLHGMEDWEREMRRFDHIKIHTNEIQHIRLQGEKVDNDVRVDLLYHQGDKSWKIDTRTHYHFQKVNGKWIVREIIIE	1.39
